According to article PMC2927733:
“And” between values parts separate entries of the source, which are not always exact repeats. Equal values may be shown once.

Columns and labels:
[1] = molecular target: PccB D422Y (Streptomyces coelicolor); experiment: SEC
[2] = molecular target: PccB D422A (Streptomyces coelicolor); experiment: crystal structure
[3] = molecular target: wild type PccB, β subunit of propionyl-CoA carboxylase (PCC) of Streptomyces coelicolor (Streptomyces coelicolor); experiment: SEC
[4] = molecular target: PccB D422N (Streptomyces coelicolor); experiment: crystal structure
[5] = molecular target: PccB D422N (Streptomyces coelicolor); experiment: SEC
[6] = molecular target: PccB D422C (Streptomyces coelicolor); experiment: crystal structure
[7] = molecular target: PccB D422C (Streptomyces coelicolor); experiment: SEC
[8] = molecular target: PccB D422Q (Streptomyces coelicolor); experiment: SEC
[9] = molecular target: PccB R456A (Streptomyces coelicolor); experiment: SEC
[10] = molecular target: PccB D422E (Streptomyces coelicolor); experiment: SEC
[11] = molecular target: PccB N80A (Streptomyces coelicolor); experiment: SEC
[12] = molecular target: PccB D422L (Streptomyces coelicolor); experiment: crystal structure
[13] = molecular target: PccB D422L (Streptomyces coelicolor); experiment: SEC
[14] = molecular target: PccB R456A/R457A (Streptomyces coelicolor); experiment: SEC
[15] = molecular target: PccB D422I (Streptomyces coelicolor); experiment: SEC
[16] = molecular target: PccB D422F (Streptomyces coelicolor); experiment: SEC
[17] = molecular target: PccB D422V (Streptomyces coelicolor); experiment: crystal structure
[18] = molecular target: PccB D422V (Streptomyces coelicolor); experiment: SEC

PccB D422Y (enzyme)
stoichiometry N [1]: 6

PccB D422A (enzyme)
stoichiometry N [2]: 6

wild type PccB, β subunit of propionyl-CoA carboxylase (PCC) of Streptomyces coelicolor (enzyme)
stoichiometry N [3]: 6

PccB D422N (enzyme)
stoichiometry N [4]: 6
stoichiometry N [5]: 6

PccB D422C (enzyme)
stoichiometry N [6]: 6
stoichiometry N [7]: 6

PccB D422Q (enzyme)
stoichiometry N [8]: 2 and 3

PccB R456A (enzyme)
ratio of dimer to hexamer (dimer:hexamer) [9]: 2.2
stoichiometry N [9]: 2 and 6

PccB D422E (enzyme)
stoichiometry N [10]: 6

PccB N80A (enzyme)
ratio of dimer to hexamer (dimer:hexamer) [11]: 2
stoichiometry N [11]: 2 and 6

PccB D422L (enzyme)
stoichiometry N [12]: 6
stoichiometry N [13]: 6

PccB R456A/R457A (enzyme)
ratio of dimer to hexamer (dimer:hexamer) [14]: 2.9
stoichiometry N [14]: 2 and 6

PccB D422I (enzyme)
stoichiometry N [15]: 6

PccB D422F (enzyme)
stoichiometry N [16]: 2 and 3

PccB D422V (enzyme)
stoichiometry N [17]: 6
stoichiometry N [18]: 6
